The values that follow are results of earlier work, collected in article PMC11820823.

As usually defined, the Kd is the concentration at which binding is half-saturated.

The target in one series is EphA8 Sam (Mus musculus) (UniProt O09127). Kind of series: ITC.
The target in the next series is EphA2 Sam (Mus musculus) (UniProt Q03145).
Another series has as its target EphA2 Sam (Homo sapiens) (UniProt P29317).

EphA8 Sam (Mus musculus), sequence (O09127 926-996): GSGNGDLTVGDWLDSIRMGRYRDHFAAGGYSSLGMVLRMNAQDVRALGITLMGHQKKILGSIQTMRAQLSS
SASH1 SH3-Sam1, sequence (P59808 547-690): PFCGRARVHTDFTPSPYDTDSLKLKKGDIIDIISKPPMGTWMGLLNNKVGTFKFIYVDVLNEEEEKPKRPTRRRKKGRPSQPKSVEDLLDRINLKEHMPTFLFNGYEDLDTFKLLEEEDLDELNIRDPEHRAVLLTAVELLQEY
SASH1 Sam1, sequence (P59808 623-693): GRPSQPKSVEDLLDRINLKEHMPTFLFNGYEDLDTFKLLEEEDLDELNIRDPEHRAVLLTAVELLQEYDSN
EphA2 Sam (Homo sapiens), sequence (P29317 901-971): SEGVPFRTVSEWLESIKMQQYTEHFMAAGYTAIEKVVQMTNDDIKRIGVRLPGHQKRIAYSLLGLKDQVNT
Ship2 Sam, sequence (O15357 1193-1258): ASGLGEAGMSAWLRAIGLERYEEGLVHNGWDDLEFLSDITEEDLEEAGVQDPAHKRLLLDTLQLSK
EphA2 Sam (Mus musculus), sequence (Q03145 902-972): as the sequence (P29317 901-971) above, with A27V, T40S, D42E counted along it

On to SASH1 SH3-Sam1 (from UniProt P59808), for which the Kd with EphA8 Sam (Mus musculus) was 1090 nM; in the series with EphA2 Sam (Mus musculus), 2520 nM.
Consider SASH1 Sam1 (from UniProt P59808), for which the equilibrium dissociation constant (Kd) with EphA8 Sam (Mus musculus) was 880 nM.
Ship2 Sam (from UniProt O15357): the Kd in the series with EphA2 Sam (Homo sapiens) is 750 nM.
